B1: Focal adhesion kinase 1 (Homo sapiens), Q05397 (parent)
chain: MAAAYLDPNLNHTPNSSTKTHLGTGMERSPGAMERVLKVFHYFESNSEPTTWASIIRHGDATDVRGIIQKIVDSHKVKHVACYGFRLSHLRSEEVHWLHVDMGVSSVREKYELAHPPEEWKYELRIRYLPKGFLNQFTEDKPTLNFFYQQVKSDYMLEIADQVDQEIALKLGCLEIRRSYWEMRGNALEKKSNYEVLEKDVGLKRFFPKSLLDSVKAKTLRKLIQQTFRQFANLNREESILKFFEILSPVYRFDKECFKCALGSSWIISVELAIGPEEGISYLTDKGCNPTHLADFTQVQTIQYSNSEDKDRKGMLQLKIAGAPEPLTVTAPSLTIAENMADLIDGYCRLVNGTSQSFIIRPQKEGERALPSIPKLANSEKQGMRTHAVSVSETDDYAEIIDEEDTYTMPSTRDYEIQRERIELGRCIGEGQFGDVHQGIYMSPENPALAVAIKTCKNCTSDSVREKFLQEALTMRQFDHPHIVKLIGVITENPVWIIMELCTLGELRSFLQVRKYSLDLASLILYAYQLSTALAYLESKRFVHRDIAARNVLVSSNDCVKLGDFGLSRYMEDSTYYKASKGKLPIKWMAPESINFRRFTSASDVWMFGVCMWEILMHGVKPFQGVKNNDVIGRIENGERLPMPPNCPPTLYSLMTKCWAYDPSRRPRFTELKAQLSTILEEEKAQQEERMRMESRRQATVSWDSGGSDEAPPKPSRPGYPSPRSSEGFYPSPQHMVQTNHYQVSGYPGSHGITAMAGSIYPGQASLLDQTDSWNHRPQEIAMWQPNVEDSTVLDLRGIGQVLPTHLMEERLIRQQQEMEEDQRWLEKEERFLKPDVRLSRGSIDREDGSLQGPIGNQHIYQPVGKPDPAAPPKKPPRPGAPGHLGSLASLSSPADSYNEGVKLQPQEISPPPTANLDRSNDKVYENVTGLVKAVIEMSSKIQPAPPEEYVPMVKEVGLALRTLLATVDETIPLLPASTHREIEMAQKLLNSDLGELINKMKLAQQYVMTSLQQEYKKQMLTAAHALAVDAKNLLDVIDQARLKMLGQTRPH

How the values were obtained:
paxi_human PXN, P49023 = variants of: B1; details: with paxi_human PXN
Chain of paxi_human PXN, P49023 (P49023 whole entry): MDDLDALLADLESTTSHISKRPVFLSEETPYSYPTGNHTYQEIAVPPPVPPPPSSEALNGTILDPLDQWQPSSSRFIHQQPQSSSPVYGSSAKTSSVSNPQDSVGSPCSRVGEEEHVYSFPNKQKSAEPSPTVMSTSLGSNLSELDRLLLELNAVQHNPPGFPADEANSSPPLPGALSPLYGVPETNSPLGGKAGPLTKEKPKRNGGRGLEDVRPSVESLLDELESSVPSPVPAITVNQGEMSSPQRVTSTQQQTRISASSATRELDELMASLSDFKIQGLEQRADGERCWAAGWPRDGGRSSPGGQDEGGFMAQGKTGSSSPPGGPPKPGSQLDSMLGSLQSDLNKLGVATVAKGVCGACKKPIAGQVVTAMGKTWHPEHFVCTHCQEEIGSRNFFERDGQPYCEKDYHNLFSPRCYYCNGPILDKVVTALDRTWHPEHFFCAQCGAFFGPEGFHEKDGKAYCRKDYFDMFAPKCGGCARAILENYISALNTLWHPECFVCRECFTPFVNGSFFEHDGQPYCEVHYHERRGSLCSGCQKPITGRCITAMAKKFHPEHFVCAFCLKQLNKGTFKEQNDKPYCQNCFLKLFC

[1] = variants of: B1; details: with tgfi1_mouse Tgfb1i1, Q62219
Chain of tgfi1_mouse Tgfb1i1, Q62219 (Q62219 whole entry): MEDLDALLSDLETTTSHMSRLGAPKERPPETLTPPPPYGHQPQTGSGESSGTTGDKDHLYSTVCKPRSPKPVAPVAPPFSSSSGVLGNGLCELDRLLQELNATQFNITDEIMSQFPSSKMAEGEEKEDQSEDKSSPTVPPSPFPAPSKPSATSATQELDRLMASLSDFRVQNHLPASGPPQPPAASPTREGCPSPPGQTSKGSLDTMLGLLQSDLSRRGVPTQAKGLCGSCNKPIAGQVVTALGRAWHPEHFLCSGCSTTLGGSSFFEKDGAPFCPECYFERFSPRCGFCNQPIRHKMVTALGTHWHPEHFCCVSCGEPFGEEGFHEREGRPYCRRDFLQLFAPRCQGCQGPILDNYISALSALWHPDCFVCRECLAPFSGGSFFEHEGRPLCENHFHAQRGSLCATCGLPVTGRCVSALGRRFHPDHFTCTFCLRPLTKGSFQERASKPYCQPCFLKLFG

| Variant | effect of a mutation on the interaction (paxi_human PXN, P49023) | effect of a mutation on the interaction [1] |
| --- | --- | --- |
| V928G | disrupting interaction | disrupting interaction |
| L1034S | disrupting interaction | disrupting interaction |

— IntAct's records for PubMed 9756887
